Assay results taken from PMC2714988, “Dimerization of Hepatitis E Virus Capsid Protein E2s Domain Is Essential for Virus–Host Interaction” (PLoS Pathogens, 2009).

Key:
[1] = target: E2-D496A (Hepatitis E virus) (UniProt Q81871); test: non-reducing SDS-PAGE; loading buffer with only 0.1% SDS, no BME, sample not boiled; compared with MW markers
[2] = target: E2-E479A (Hepatitis E virus) (UniProt Q81871); test: as above
[3] = target: E2-I529A (Hepatitis E virus) (UniProt Q81871); test: as above
[4] = target: E2-K534A (Hepatitis E virus) (UniProt Q81871); test: as above
[5] = target: E2-R542A (Hepatitis E virus) (UniProt Q81871); test: not stated; 'in solution'; the paragraph names non-reducing SDS-PAGE, analytical ultracentrifugation and gel filtration for the mutants without telling which was used here
[6] = target: E2-Y485A (Hepatitis E virus) (UniProt Q81871); test: non-reducing SDS-PAGE; loading buffer with only 0.1% SDS, no BME, sample not boiled; compared with MW markers
[7] = target: E2s-Y557A (Hepatitis E virus) (UniProt Q81871); test: AUC; sedimentation equilibrium; 20°C; phosphate-buffered saline pH 7.4; E2s at 0.69, 0.36 and 0.14 OD; 18,000, 21,000 and 24,000 rpm; single ideal species model and self-association monomer-dimer model; dimer to monomers
[8] = target: HEV capsid protein domain E2s (ORF2 aa455-602) (Hepatitis E virus) (UniProt Q81871); test: AUC; sedimentation velocity; 20°C; E2s 1 mg/ml in phosphate-buffered saline pH 7.4; 60,000 rpm; c(s) method
[9] = target: HEV capsid protein domain E2s (ORF2 aa455-602) (Hepatitis E virus) (UniProt Q81871); test: SEC; Superdex 75 10/300GL in phosphate-buffered saline pH 7.4, 0.5 ml/min, against molecular weight standards
[10] = target: HEV capsid protein domain E2s (ORF2 aa455-602) (Hepatitis E virus) (UniProt Q81871); test: AUC; sedimentation equilibrium; 20°C; phosphate-buffered saline pH 7.4; E2s at 0.69, 0.36 and 0.14 OD; 18,000, 21,000 and 24,000 rpm; single ideal species model and self-association monomer-dimer model; dimer to monomers
[11] = target: HEV capsid protein E2 (ORF2 aa394-606), wild type (Hepatitis E virus, UniProt Q81871 394-606); test: non-reducing SDS-PAGE; loading buffer with only 0.1% SDS, no BME, sample not boiled; compared with MW markers; conditions: both partners purified

Q: “E2-D496A (from UniProt Q81871 394-606) (domain or fragment)” was tested. Which stoichiometry N [1] did it give?
A: 2

Q: “E2-E479A (from UniProt Q81871 394-606) (domain or fragment)” was tested. Which stoichiometry N [2] did it give?
A: 2

Q: Which stoichiometry N [3] does the source give for “E2-I529A (from UniProt Q81871 394-606) (domain or fragment)” here?
A: 2

Q: Which stoichiometry N [4] does the source give for “E2-K534A (from UniProt Q81871 394-606) (domain or fragment)” here?
A: 2

Q: For “E2-R542A (from UniProt Q81871 394-606) (domain or fragment)”, which stoichiometry N [5] is on record?
A: 2

Q: With “E2-Y485A (from UniProt Q81871 394-606) (domain or fragment)” as the molecule, how does the stoichiometry N [6] read?
A: 2

Q: How did the stoichiometry N [7] turn out when “E2s-Y557A (from UniProt Q81871 455-602) (domain or fragment)” was run?
A: 2

Q: For “HEV capsid protein domain E2s (ORF2 aa455-602) (from UniProt Q81871 455-602) (domain or fragment)”, which stoichiometry N [8] is on record?
A: 2

Q: And the stoichiometry N [9]?
A: 2

Q: And the Kd [10]?
A: 0.397 µM

Q: What about the stoichiometry N [10] of the same molecule?
A: 2

B1: HEV capsid protein E2 (ORF2 aa394-606), wild type (domain or fragment)
chain: MQLFYSRPVVSANGEPTVKLYTSVENAQQDKGIAIPHDIDLGESRVVIQDYDNQHEQDRPTPSPAPSRPFSVLRANDVLWLSLTAAEYDQSTYGSSTGPVYVSDSVTLVNVATGAQAVARSLDWTKVTLDGRPLSTIQQHSKTFFVLPLRGKLSFWEAGTTKAGYPYNYNTTASDQLLVENAAGHRVAISTYTTSLGAGPVSISAVAVLAPHSA
modifications: Wild-type E2, aa394-606, with start Met. The E2s gene was amplified from this E2 gene, so aa455-602 are taken from 3GGQ; the flanks come from genotype 1 Q81871 because the strain is not printed. …
Q: For B1, which “stoichiometry N” value [11] is on record?
A: 2
